From patent publication US20190262327A1 (AstraZeneca / MedImmune, published 2019)
Numbering of substitutions follows the chain as printed.

B1: Abet0332 scFv (scFv, V domains shown, not shown: small tags and cut ends)
VH: EVQLLESGGGLVQPGESLRLSCAASSDSWHTDIMWWVRQAPGKRLEWVSVIGNSNKKIAYADSVKGRFTISRDNSKNTLYLQMNSLRAEDTAVYYCAREWMDHSRPYYYYGMDVWGQGTLVTVSS
VL: SYELTQPPSVSVSPGQTASITCSGHNIGAKWVSWYQQKPGQSPILVIYRDDKRPSGIPERFSASNSGHTATLTISGTQATDEADYYCQAQGQVTRSFGGGTKLTVL
notes: Purified scFv expressed in E. coli
B2: Abet0343 scFv (scFv, V domains shown, not shown: small tags and cut ends)
VH: EVQLLESGGGLVQPGGSLRLSCAASGFNFNHQVMWWVRQAPGKGLEWVSVIGKTNENIAYADSVKGRFTISRDNSKNTLYLQMNSLRAEDTAVYYCAREWMDHSRPYYYYGMDVWGQGTLVTVSS
VL: QSVLTQPPSVSVSPGQTASITCSGHNLEDKFASWYQQKSGQSPVLVIYRDDKRPSGIPERFSASNSGHTATLTISGTQATDEADYYCSSQDTVTRVFGGGTKLTVL
notes: as for B1
B3: Abet0342 scFv (scFv, V domains shown, not shown: small tags and cut ends)
VH: B2 VH with N28D, N30R, H31R, Q32S, K53A, T54Q, N55T, E56Q, I58K
VL: B2 VL with Q1S, S2Y, V3E, S39P, H68D, T80M, S88Q, S89A, T92S, V93T
notes: as for B1
B4: Abet0328 scFv (scFv, V domains shown, not shown: small tags and cut ends)
VH: EVQLLESGGGLVQPGGSLRLSCAASRDPFKADTMWWVRQAPRKRLEWVSVIGAHTTNSAYADSVKGRFTISRDNSKNTLYLQMNSLRAEDTAVYYCAREWMDRSRPYYYYGMDVWGQGTLVTVSS
VL: B2 VL with Q1S, S2Y, V3E, A18V, H25R, S39P, I57V
notes: as for B1
B5: Abet0371 scFv (scFv, V domains shown, not shown: small tags and cut ends)
VH: EVQLSESGGGLVQPGGSLRLSCAASHDAFPFDTMWWVRQAPGKGLEWVSVIGSSGGTTVYADSVKGRFTVSRDNSKNTLYLQMNSLRAEDTAVYYCAREWMDHSRPYYYYGMDVWGQGTLVTVSS
VL: B1 VL with G28S, A29S, K30S, I44V, Q88S, A89S, G91D, Q92T, S96V
notes: as for B1
B6: Abet0329 scFv (scFv, V domains shown, not shown: small tags and cut ends)
VH: EVQLLESGGGLVQPGGSLRLSCAASTFNLKRETMWWVRQAPGKGLEWVSVIGSHQERTSYADSVKGRFTISRDNSKNTLYLQMNSLRAEDTAVYYCAREWMDHSRPYYYYGMDVWGQGTLVTVSS
VL: B2 VL with Q1S, S2Y, V3E, L27V, E28S, F31W, A32M, S33T, S39P
notes: as for B1
B7: Abet0319 scFv (scFv, V domains shown, not shown: small tags and cut ends)
VH: B5 VH with S5L, H26V, D27S, A28V, F29Y, P30N, F31K, V70I
VL: B1 VL with G28M, A29D, Q41R, I44A, Q88S, A89S, G91D, Q92T, S96V
notes: as for B1
B8: Abet0379 scFv (scFv, V domains shown, not shown: small tags and cut ends)
VH: EVQLLESGGGLVQPGGSLRLSCAASGFDFAETPLWWVRQAPGERLEWVSVIGSNQNKTAYADSVKGRFTISRDNSKDTLYLQMNSLRAEDTAVYYCAREWMDHSRPYYYYGMDVWGQGTLVTVSS
VL: B2 VL with E82G, S88A, S89T, T92N, V93F
notes: as for B1
B9: Abet0378 scFv (scFv, V domains shown, not shown: small tags and cut ends)
VH: B2 VH with N28P, N30E, H31T, Q32D, V33I, K53T, T54N, N55T, E56D, I58V
VL: B2 VL with Q1S, S2Y, V3E, S39P
B10: Abet0368 scFv (scFv, V domains shown, not shown: small tags and cut ends)
VH: EVQLLESGGGLVQPGGSLRLSCAASGFDFGPSPMWWVRQAPGKGLEWVSVIGKDTQNSTYADSVKGRFTISRDNSKDTLYLQMNSLKAEDTAVYYCAREWMDHSRPYYYYGMDVWGQGTLVTVSS
VL: B2 VL with Q1S, S2Y, V3E, A32T, T77A
notes: as for B1
B11: Abet0373 scFv (scFv, V domains shown, not shown: small tags and cut ends)
VH: EVQLLESGGGLVQPGGSLRLSCVASGFDFERSVMWWVRQAPGKRLEWVSVIGSGKTNITYADSVKGRFTISRDNSKNTLYLQMNSLRAEDTAVYYCAREWMDHSRPYYYYGMDVWGQGTLVTVSS
VL: B2 VL with Q1S, S2Y, V3E, S39P, G56E
notes: as for B1
B12: Abet0370 scFv (scFv, V domains shown, not shown: small tags and cut ends)
VH: B2 VH with N28H, N30P, H31M, Q32S, V33A, K53E, N55P, N57R, I58Q, N77S
VL: SYELTQPPSVSVSPGQTASITCTTPHFNSKFASWYQQKPGQSPVLVIYRDDKRPSGIPERFSASNSGHTATLTISGTQAMDEADYYCQAQDSTTRVFGGGTRLTVL
notes: as for B1
B13: Abet0383 scFv (scFv, V domains shown, not shown: small tags and cut ends)
VH: EVQLLESGGGLVQPGGSLKLSCAASGFTFDWYPMWWVRQAPGKRLEWISVIGADNAKIAYADSVKGRFTISRDNSKNTLYLQMNSLRAEDTAVYYCAREWMGHSRPYYYYGMDVWGQGTPVTVSS
VL: B2 VL with Q1S, S2Y, V3E, E28G, S39P
notes: as for B1
B14: Abet0344 scFv (scFv, V domains shown, not shown: small tags and cut ends)
VH: EVQLLESGGGLVQPGGSLSLSCAASGFTFSVYTMWWVRQAPGKGLEWVSVIGGNETRKAYADSVKGRFTISRDNSKNRLYLQMNSLRAEDTAVYYCAREWMDHSRPYYYYGMDVWGQGTLVTVSS
VL: B2 VL with S88A, S89T, T92N, V93F
notes: as for B1
B15: Abet0381 scFv (scFv, V domains shown, not shown: small tags and cut ends)
VH: EVQLLESGGGLVQPGGSLRLSCAASSPSFPRETMWWVRQAPGKGLEWVSVIGTQPNRLTYADSVKGRFTISRDNSKNTLYLQMNSLRAEDTAVYYCAREWMDHSRPYYYYGIDVWGQGTLVTVSP
VL: B2 VL with Q1S, S2Y, V3E, V12A, A32V, S39P, D84N, V96A
notes: as for B1
B16: Abet0372 scFv (scFv, V domains shown, not shown: small tags and cut ends)
VH: EVQLLESGGGLVQPGGSLRLSCAASSDMFNIETMWWVRQAPGKGLEWVSVIGKGMNNVSYADSVKGRFTISRDNSKNTLYLQMNSLRAEDTAVYYCAREWMDHSRPYYYYGMDVWGQGTLVTVSS
VL: B2 VL with Q1S, S2Y, V3E, S39P
notes: as for B1

Biological target: T1, biotinylated synthetic human Amyloid beta 1-42 peptide (human, UniProt P05067 672-713, biotinylated (N-terminal biotin in Example 4))
T1 construct: domain: Amyloid beta 1-42 peptide; Numbers 1-42 count on the Amyloid beta peptide, not on APP; also called biotinylated human Amyloid beta 1-42; N-terminal biotin Abeta 1-42
T1 sequence (P05067 672-713 limits assumed): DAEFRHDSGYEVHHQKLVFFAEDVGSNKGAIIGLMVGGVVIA
Test: HTRF epitope competition; purified scFv titrated; competitor Abet0144-GL IgG1-TM
Protocol: (§1) Two thousand and twenty four scFv chosen at random from selection rounds 3 and 4 of the targeted mutagenesis approach described in section 1.2 were expressed in bacteria to produce unpurified periplasmic scFv.
(§2) One thousand six hundred and seventy two scFv, randomly selected from selection rounds 9 to 11, were screened in an epitope competition assay as described in section 1.3.
(§3) Where the assay was performed more than once, the absolute range of IC₅₀ values is provided.

| IC50 [nM] | Binder |
| --- | --- |
| 0.91 | B1 |
| 0.48 | B2 |
| 0.59 | B3 |
| 0.55 | B4 |
| 0.5 | B5 |
| 0.63 | B6 |
| 0.68 | B7 |
| 0.69 | B8 |
| 0.97 | B9 |
| 0.55 | B10 |
| 0.84 | B11 |
| 0.76 | B12 |
| 0.75 | B13 |
| 0.77 | B14 |
| 0.47 | B15 |
| 0.38 | B16 |

Biological target: T1, biotinylated synthetic human Amyloid …
Test: SPR (ProteOn); biotinylated peptide on streptavidin chip, scFv in solution
Protocol: These experiments were performed essentially as described by Karlsson et al. (Karlsson et al., 1991).
The chip surface was regenerated between cycles by a single 60 second injection of 10 mM Glycine pH 2.0 to remove scFv bound to the peptide.
Each scFv at 100-200 nM was sequentially passed over the peptide surface for a sufficient amount of time to observe sensorgrams that could be fitted to an appropriate binding model with confidence. An irrelevant scFv blank was subtracted from the main dataset to reduce the impact of any buffer artefacts or non-specific binding effects. An appropriate binding model was then fitted to the data.

| Kd [nM] | koff [s⁻¹] | kon [M⁻¹ s⁻¹] | Binder |
| --- | --- | --- | --- |
| 0.391 | 0.000129 | 329000 | B1 |
| 0.188 | 2.25e-05 | 120000 | B2 |
| 0.421 | 5.73e-05 | 136000 | B3 |
| 0.729 | 0.000103 | 141000 | B4 |
| 0.762 | 0.000272 | 357000 | B5 |
| 0.701 | 0.000138 | 197000 | B6 |
| 0.391 | 0.000129 | 329000 | B7 |
| 0.327 | 4.39e-05 | 134000 | B8 |
| 0.472 | 6.41e-05 | 136000 | B9 |
| 0.482 | 9e-05 | 187000 | B10 |
| 0.483 | 8.92e-05 | 185000 | B11 |
| 0.651 | 7.76e-05 | 119000 | B12 |
| 0.217 | 3.94e-05 | 181000 | B13 |
| 0.739 | 5.73e-05 | 77500 | B14 |
| 0.241 | 5.14e-05 | 213000 | B15 |
| 0.724 | 0.000176 | 243000 | B16 |

Biological target: T1, biotinylated synthetic human Amyloid …
Test: HTRF epitope competition; purified scFv titrated; competitor Abet0144-GL IgG1-TM; range of repeats
Protocol: as §1, §2, §3

| IC50 [nM] | Binder |
| --- | --- |
| 0.46 to 0.53 | B5 |
| 0.52 to 0.76 | B7 |
| 0.26 to 0.49 | B16 |
